Results taken from patent US20240327503A1.

Molecular target: SARS-CoV-2 spike ECD S-2P (SARS-CoV-2) (UniProt P0DTC2)

Substance: CR3022 (antibody)
- EC50: 3.6 nM
